# Data taken from the DeepSol protein solubility set.
# Assay: soluble on expression in E. coli; label from the status in PepcDB or PDB records
row,Sequence,soluble on expression in E. coli
1,MGSDKIHHHHHHMSDIVIKAENLGKKYIIGHQAENGRYQALRDVLMHNAQTLWNKTKDLAKGNPLIHGDTLEEVWALKDVSFEIRRGEAVGIIGRNGAGKSTLLKILSRITDPSAGRVTIDGRVASLLEVGTGFHPELSGRENIYLNGTILGMSRKEINQKFDEIVDFAGIEKYLDTPVKRYSSGMYVRLAFAVAAHLEPEILVVDEVLAVGDAEFQKKCLGKMGDVTKEGRTVLFVSHNMVALSALCFRSINLDSGKIIYNGHVDTGVLIYMNGLSNIDNPISYKTRSATGTGEMKIINSFLLRNGKPTLSNVACGDKVDICIEFECCTEKPRFHFALDIYNSKGNRIAYCNSLYTMGVSWVQLPKIFLAKCSFPKLPFFPDEYRVDISIHCNDERADYLQGALSLKVYEGDFYGSGKIPPISGASPIMLLEHKWTIDN,not soluble
2,MLTRLNRSFVQAARSMYIQVQETPNPLSLKFLPGQQLLPDASKTYDFSSAATAKQSPLAIKLLRVDGVKRVFFGEDFVTVTKSDETVDWALLRPEIFSTIADHIQTGKPVINEAATVSDQVEEDDEVVMMIKEILETRIRPMVQEDGGDITYVGFDDGVVKLKMQGSCTGCPSSGVTLKNGIENMLTFYVPEVKEVIEVKDESDDLVEQELKKFEQSKGIKD,not soluble
3,MTPLSALTSNPAPSPPPKFALGKCPATAIHVVSVLRPNRQRFCYEKTDAGDLIPHKCLICQPILTEKHISPYYAVYSDLLEDFVLFGYNTMTGKMEQFIYAFKTDCFVEVNRPEIKYNPAFLVKGNVVVALNGPEGELVVIERDCRGLLSKESTSYGQFRTLPTAALRTLTLQDLERDRWDRAANSDEVKISSGNESFDRLYAEYQKNLPRFQVRQCLHLNKEFLCVYSKTSGDYTRLEYIDETGDFQKISCTLCTCEVTESNLIPLYVERNASELVIHVHNTENNQIEQYIYDVRTFGFVQVKRNLVYDPKKITSGLNLFMAENIDNRKVYMIMRGRDGRLQKETSGSGGFEKMQPVAVKTFQVQWVEMKTEFEKKKASTERVEPQHPVQTEGEDIMETVLAMVESFNCDLRKELGLTQDQEIPRKAPRVESAETEENIVKNLEKLQIAKDPEEPTTAASEGGNTYGYQELDDTMSEGLLEKEAESKHQDANEPEPVKNVTYEPDVAAMDKKKKRRELKSRLNKINAQIDELEKRRMERAGKKQVVSSSVPSEEAAQVEAPASPALAENTNQISNEETPKIDIFEGYNGSFLFGTNTSKEWIVEDIRNHMVGKLLKAFWPRIQNVEEMNGELFKKLIANARKCETEILEASNDRDEYYRLMQLTVDQILKKTLKKDQRATEHNHQQPTQSSDELAKNHEKN,not soluble
4,MEDENILRNAVNLQVLKFHYPEIESIIDIASHVAVYQFDVGSQKWLKTSIEGTFFLVKDQRARVGYVILNRNSPENLYLFINHPSNVHLVDRYLIHRTENQHVVGLWMFDPNDMSRIFNIVKESLLR,soluble
5,MTNLPMNKLIDEVNNELSVAINKSVMDTQLEESMLYSLNAGGKRIRPVLLLLTLDSLNTEYELGMKSAIALEMIHTYSLIHDDLPAMDNDDYRRGKLTNHKVYGEWTAILAGDALLTKAFELISSDDRLTDEVKIKVLQRLSIASGHVGMVGGQMLDMQSEGQPIDLETLEMIHKTKTGALLTFAVMSAADIANVDDTTKEHLESYSYHLGMMFQIKDDLLDCYGDEAKLGKKVGSDLENNKSTYVSLLGKDGAEDKLTYHRDAAVDELTQIDEQFNTKHLLEIVDLFYSRDHKGHHHHHH,soluble
6,MAHHHHHHMFISEDLDPEALKNEANIKWKEVIGKGNMEEANIIWRQALKECIKYSMRGIPTNKNRDMQISLRLNLSLYHYKKKEYSDCINQCNIIIDNLLNLEEMLQYYNMGDEEENKKESNNNDGDKGDHISDDKGDHMSDDKGDHKDDDKGDHMSDDKGDHKDDDKGDHMSDDKGDHKDDDKGDHMSDDKDKSNVNLREKKYIIKKDILIKIFLRRASSFLCLQEFNKCNEDLGIIKKLENNDAEAATLEKRMIIEKKDYERKQKELYKKMCNSK,not soluble
